Reference: the supplement of paper PMC5998384

What was measured:
HeLa Kyoto [1] = test: solubility in G1/S (NP-40 vs SDS abundance) (log2 ratio); higher = more soluble; settings: cell cycle stage: G1/S
HeLa Kyoto [2] = test: melting temperature (median over replicates), in situ; higher = more thermally stable
HeLa Kyoto [3] = test: solubility change mitosis vs G1/S (difference of NP-40 vs SDS log2 ratios) (log2 ratio difference); higher = more soluble in mitosis
HeLa Kyoto [4] = test: thermal stability score vs G1/S (z-score of summed log2 fold changes over temperatures); higher = more thermally stable than in G1/S
[5] = cell cycle stage: early G1 (4.5 h after nocodazole release)
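Throughout, for melting temperature (median over replicates), in situ: HeLa Kyoto cells synchronized by double thymidine or nocodazole block, proteins quantified by TMT10plex mass spectrometry, three independent biological replicates.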
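Throughout, for solubility change mitosis vs G1/S (difference of NP-40 vs SDS log2 ratios): synchronized HeLa Kyoto cells (double thymidine block for G1/S, nocodazole release for mitosis), protein amounts in NP-40 versus SDS lysates quantified by mass spectrometry, three biological replicates.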
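Throughout, for solubility in G1/S (NP-40 vs SDS abundance): HeLa Kyoto cells arrested at G1/S by double thymidine block, proteins quantified by TMT10plex mass spectrometry in mild NP-40 versus SDS extracts, three biological replicates.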
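Throughout, for thermal stability score vs G1/S (z-score of summed log2 fold changes over temperatures): synchronized HeLa Kyoto cells, proteins quantified by TMT10plex mass spectrometry, three biological replicates, mitosis taken 0.5 h after nocodazole release, G1/S directly after double thymidine block.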

| Sequence | solubility in G1/S (log2) (HeLa Kyoto [1]) | melting temperature (HeLa Kyoto [2]; cell cycle stage: G1/S) [°C] | melting temperature (HeLa Kyoto [2]; cell cycle stage: mitosis) [°C] | solubility change mitosis (log2) (HeLa Kyoto [3]) | thermal stability score (HeLa Kyoto [4]; [5]) | thermal stability score (HeLa Kyoto [4]; cell cycle stage: mitosis) |
| --- | --- | --- | --- | --- | --- | --- |
| MSPKRIAKRRSPPADAIPKSKKVKVSHRSHSTEPGLVLTLGQGDVGQLGLGENVMERKKPALVSIPEDVVQAEAGGMHTVCLSKSGQVYSFGCNDEGALGRDTSVEGSEMVPGKVELQEKVVQVSAGDSHTAALTDDGRVFLWGSFRDNNGVIGLLEPMKKSMVPVQVQLDVPVVKVASGNDHLVMLTADGDLYTLGCGEQGQLGRVPELFANRGGRQGLERLLVPKCVMLKSRGSRGHVRFQDAFCGAYFTFAISHEGHVYGFGLSNYHQLGTPGTESCFIPQNLTSFKNSTKSWVGFSGGQHHTVCMDSEGKAYSLGRAEYGRLGLGEGAEEKSIPTLISRLPAVSSVACGASVGYAVTKDGRVFAWGMGTNYQLGTGQDEDAWSPVEMMGKQLENRVVLSVSSGGQHTVLLVKDKEQS [RCC1] | -0.0854 | 48 | 49.1 | 0.0534 | 1.88 | 3.04 |
| MSPPSPGRRREQRRPRAAATMATPLPGRAGGPATPLSPTRLSRLQEKEELRELNDRLAHYIDRVRALELENDRLLLKISEKEEVTTREVSGIKALYESELADARRVLDETARERARLQIEIGKLRAELDEVNKSAKKREGELTVAQGRVKDLESLFHRSEVELAAALSDKRGLESDVAELRAQLAKAEDGHAVAKKQLEKETLMRVDLENRCQSLQEELDFRKSVFEEEVRETRRRHERRLVEVDSSRQQEYDFKMAQALEELRSQHDEQVRLYKLELEQTYQAKLDSAKLSSDQNDKAASAAREELKEARMRLESLSYQLSGLQKQASAAEDRIRELEEAMAGERDKFRKMLDAKEQEMTEMRDVMQQQLAEYQELLDVKLALDMEINAYRKLLEGEEERLKLSPSPSSRVTVSRATSSSSGSLSATGRLGRSKRKRLEVEEPLGSGPSVLGTGTGGSGGFHLAQQASASGSVSIEEIDLEGKFVQLKNNSDKDQSLGNWRIKRQVLEGEEIAYKFTPKYILRAGQMVTVWAAGAGVAHSPPSTLVWKGQSSWGTGESFRTVLVNADGEEVAMRTVKKSSVMRENENGEEEEEEAEFGEEDLFHQQGDPRTTSRGCYVM [LMNB2] | -1.66 | 51.4 | 50.3 | 1.67 | -7.21 | -6.08 |
| MSPTPPLFSLPEARTRFTKSTREALNNKNIKPLLSTFSQVPGSENEKKCTLDQAFRGILEEEIINHSSCENVLAIISLAIGGVTEGICTASTPFVLLGDVLDCLPLDQCDTIFTFVEKNVATWKSNTFYSAGKNYLLRMCNDLLRRLSKSQNTVFCGRIQLFLARLFPLSEKSGLNLQSQFNLENVTVFNTNEQESTLGQKHTEDREEGMDVEEGEMGDEEAPTTCSIPIDYNLYRKFWSLQDYFRNPVQCYEKISWKTFLKYSEEVLAVFKSYKLDDTQASRKKMEELKTGGEHVYFAKFLTSEKLMDLQLSDSNFRRHILLQYLILFQYLKGQVKFKSSNYVLTDEQSLWIEDTTKSVYQLLSENPPDGERFSKMVEHILNTEENWNSWKNEGCPSFVKERTSDTKPTRIIRKRTAPEDFLGKGPTKKILMGNEELTRLWNLCPDNMEACKSETREHMPTLEEFFEEAIEQADPENMVENEYKAVNNSNYGWRALRLLARRSPHFFQPTNQQFKSLPEYLENMVIKLAKELPPPSEEIKTGEDEDEEDNDALLKENESPDVRRDKPVTGEQIEVFANKLGEQWKILAPYLEMKDSEIRQIECDSEDMKMRAKQLLVAWQDQEGVHATPENLINALNKSGLSDLAESLTNDNETNS [THOC1] | -0.2 | 49.7 | 49.5 | 0.218 | 0.442 | 3.3 |
| MSPTQWDFPVELCCRPMAFVTLTGLDVVYNAVHRAVWDAFCANRRADRVPISFKVLPGDHEYPKCRPKRTSYEWYIPKGILKTGWMNKHLNLVPALVVVFYELDWDEPQWKEKQSECATRVEIVRQSLQGRNTKVAVVLIQKKTPLPPGEDVIASERAAALCNACELSGKSLFVLPHTDHLVGYIIRLENAFYEHAQTYYYTEIRRVKSHKEFLNKTTHQLLFVRHQFKIAFFSELKQDTQNALKNYRTAYNLVHELRAHETNILEIKTMAGFINYKICRLCFQHNTPLDAIAQFRKHIDLCKKKIGSAELSFEHDAWMSKQFQAFGDLFDEAIKLGLTAIQTQNPGFYYQQAAYYAQERKQLAKTLCNHEASVMYPNPDPLETQTGVLDFYGQRSWRQGILSFDLSDPEKEKVGILAIQLKERNVVHSEIIITLLSNAVAQFKKYKCPRMKSHLMVQMGEEYYYAKDYTKALKLLDYVMCDYRSEGWWTLLTSVLTTALKCSYLMAQLKDYITYSLELLGRASTLKDDQKSRIEKNLINVLMNESPDPEPDCDILAVKTAQKLWADRISLAGSNIFTIGVQDFVPFVQCKAKFHAPSFHVDVPVQFDIYLKADCPHPIRFSKLCVSFNNQEYNQFCVIEEASKANEVLENLTQGKMCLVPGKTRKLLFKFVAKTEDVGKKIEITSVDLALGNETGRCVVLNWQGGGGDAASSQEALQAARSFKRRPKLPDNEVHWDSIIIQASTMIISRVPNISVHLLHEPPALTNEMYCLVVTVQSHEKTQIRDVKLTAGLKPGQDANLTQKTHVTLHGTELCDESYPALLTDIPVGDLHPGEQLEKMLYVRCGTVGSRMFLVYVSYLINTTVEEKEIVCKCHKDETVTIETVFPFDVAVKFVSTKFEHLERVYADIPFLLMTDLLSASPWALTIVSSELQLAPSMTTVDQLESQVDNVILQTGESASECFCLQCPSLGNIEGGVATGHYIISWKRTSAMENIPIITTVITLPHVIVENIPLHVNADLPSFGRVRESLPVKYHLQNKTDLVQDVEISVEPSDAFMFSGLKQIRLRILPGTEQEMLYNFYPLMAGYQQLPSLNINLLRFPNFTNQLLRRFIPTSIFVKPQGRLMDDTSIAAA [TRAPPC11] | -0.13 | 50.7 | 50.3 | -0.216 | 0.0283 | -0.012 |
| MSPVLHFYVRPSGHEGAAPGHTRRKLQGKLPELQGVETELCYNVNWTAEALPSAEETKKLMWLFGCPLLLDDVARESWLLPGSNDLLLEVGPRLNFSTPTSTNIVSVCRATGLGPVDRVETTRRYRLSFAHPPSAEVEAIALATLHDRMTEQHFPHPIQSFSPESMPEPLNGPINILGEGRLALEKANQELGLALDSWDLDFYTKRFQELQRNPSTVEAFDLAQSNSEHSRHWFFKGQLHVDGQKLVHSLFESIMSTQESSNPNNVLKFCDNSSAIQGKEVRFLRPEDPTRPSRFQQQQGLRHVVFTAETHNFPTGVCPFSGATTGTGGRIRDVQCTGRGAHVVAGTAGYCFGNLHIPGYNLPWEDPSFQYPGNFARPLEVAIEASNGASDYGNKFGEPVLAGFARSLGLQLPDGQRREWIKPIMFSGGIGSMEADHISKEAPEPGMEVVKVGGPVYRIGVGGGAASSVQVQGDNTSDLDFGAVQRGDPEMEQKMNRVIRACVEAPKGNPICSLHDQGAGGNGNVLKELSDPAGAIIYTSRFQLGDPTLNALEIWGAEYQESNALLLRSPNRDFLTHVSARERCPACFVGTITGDRRIVLVDDRECPVRRNGQGDAPPTPLPTPVDLELEWVLGKMPRKEFFLQRKPPMLQPLALPPGLSVHQALERVLRLPAVASKRYLTNKVDRSVGGLVAQQQCVGPLQTPLADVAVVALSHEELIGAATALGEQPVKSLLDPKVAARLAVAEALTNLVFALVTDLRDVKCSGNWMWAAKLPGEGAALADACEAMVAVMAALGVAVDGGKDSLSMAARVGTETVRAPGSLVISAYAVCPDITATVTPDLKHPEGRGHLLYVALSPGQHRLGGTALAQCFSQLGEHPPDLDLPENLVRAFSITQGLLKDRLLCSGHDVSDGGLVTCLLEMAFAGNCGLQVDVPVPRVDVLSVLFAEEPGLVLEVQEPDLAQVLKRYRDAGLHCLELGHTGEAGPHAMVRVSVNGAVVLEEPVGELRALWEETSFQLDRLQAEPRCVAEEERGLRERMGPSYCLPPTFPKASVPREPGGPSPRVAILREEGSNGDREMADAFHLAGFEVWDVTMQDLCSGAIGLDTFRGVAFVGGFSYADVLGSAKGWAAAVTFHPRAGAELRRFRKRPDTFSLGVCNGCQLLALLGWVGGDPNEDAAEMGPDSQPARPGLLLRHNLSGRYESRWASVRVGPGPALMLRGMEGAVLPVWSAHGEGYVAFSSPELQAQIEARGLAPLHWADDDGNPTEQYPLNPNGSPGGVAGICSCDGRHLAVMPHPERAVRPWQWAWRPPPFDTLTTSPWLQLFINARNWTLEGSC [PFAS] | 0.146 | 51.9 | 51.5 | -0.0731 | -3.18 | -3.7 |
| MSPWSWFLLQTLCLLPTGAASRRGAPGTANCELKPQQSELNSFLWTIKRDPPSYFFGTIHVPYTRVWDFIPDNSKEAFLQSSIVYFELDLTDPYTISALTSCQMLPQGENLQDVLPRDIYCRLKRHLEYVKLMMPLWMTPDQRGKGLYADYLFNAIAGNWERKRPVWVMLMVNSLTEVDIKSRGVPVLDLFLAQEAERLRKQTGAVEKVEEQCHPLNGLNFSQVIFALNQTLLQQESLRAGSLQIPYTTEDLIKHYNCGDLSSVILSHDSSQVPNFINATLPPQERITAQEIDSYLRRELIYKRNERIGKRVKALLEEFPDKGFFFAFGAGHFMGNNTVLDVLRREGYEVEHAPAGRPIHKGKSKKTSTRPTLSTIFAPKVPTLEVPAPEAVSSGHSTLPPLVSRPGSADTPSEAEQRFRKKRRRSQRRPRLRQFSDLWVRLEESDIVPQLQVPVLDRHISTELRLPRRGHSHHSQMVASSACLSLWTPVFWVLVLAFQTETPLL [TRABD2A] | 0.299 | 53.9 | 53.4 | -0.031 | 1.43 | 0.133 |
| MSQWYELQQLDSKFLEQVHQLYDDSFPMEIRQYLAQWLEKQDWEHAANDVSFATIRFHDLLSQLDDQYSRFSLENNFLLQHNIRKSKRNLQDNFQEDPIQMSMIIYSCLKEERKILENAQRFNQAQSGNIQSTVMLDKQKELDSKVRNVKDKVMCIEHEIKSLEDLQDEYDFKCKTLQNREHETNGVAKSDQKQEQLLLKKMYLMLDNKRKEVVHKIIELLNVTELTQNALINDELVEWKRRQQSACIGGPPNACLDQLQNWFTIVAESLQQVRQQLKKLEELEQKYTYEHDPITKNKQVLWDRTFSLFQQLIQSSFVVERQPCMPTHPQRPLVLKTGVQFTVKLRLLVKLQELNYNLKVKVLFDKDVNERNTVKGFRKFNILGTHTKVMNMEESTNGSLAAEFRHLQLKEQKNAGTRTNEGPLIVTEELHSLSFETQLCQPGLVIDLETTSLPVVVISNVSQLPSGWASILWYNMLVAEPRNLSFFLTPPCARWAQLSEVLSWQFSSVTKRGLNVDQLNMLGEKLLGPNASPDGLIPWTRFCKENINDKNFPFWLWIESILELIKKHLLPLWNDGCIMGFISKERERALLKDQQPGTFLLRFSESSREGAITFTWVERSQNGGEPDFHAVEPYTKKELSAVTFPDIIRNYKVMAAENIPENPLKYLYPNIDKDHAFGKYYSRPKEAPEPMELDGPKGTGYIKTELISVSEVHPSRLQTTDNLLPMSPEEFDEVSRIVGSVEFDSMMNTV [STAT1] | 0.104 | 47.7 | 48.5 | -0.17 | 1.15 | 3.11 |
| MSRARSHLRAALFLAAASARGITTQVAARRGLSAWPVPQEPSMEYQDAVRMLNTLQTNAGYLEQVKRQRGDPQTQLEAMELYLARSGLQVEDLDRLNIIHVTGTKGKGSTCAFTECILRSYGLKTGFFSSPHLVQVRERIRINGQPISPELFTKYFWRLYHRLEETKDGSCVSMPPYFRFLTLMAFHVFLQEKVDLAVVEVGIGGAYDCTNIIRKPVVCGVSSLGIDHTSLLGDTVEKIAWQKGGIFKQGVPAFTVLQPEGPLAVLRDRAQQISCPLYLCPMLEALEEGGPPLTLGLEGEHQRSNAALALQLAHCWLQRQDRHGAGEPKASRPGLLWQLPLAPVFQPTSHMRLGLRNTEWPGRTQVLRRGPLTWYLDGAHTASSAQACVRWFRQALQGRERPSGGPEVRVLLFNATGDRDPAALLKLLQPCQFDYAVFCPNLTEVSSTGNADQQNFTVTLDQVLLRCLEHQQHWNHLDEEQASPDLWSAPSPEPGGSASLLLAPHPPHTCSASSLVFSCISHALQWISQGRDPIFQPPSPPKGLLTHPVAHSGASILREAAAIHVLVTGSLHLVGGVLKLLEPALSQ [FPGS] | 0.114 | 49.7 | 48.1 | -0.165 | 0.537 | 1.93 |
